B1: Trypsin: protease, applied alone as control after neutralization with 1.25% FCS (protein, UniProt P00760 24-246, looked up)
Serine protease 1: IVGGYTCGANTVPYQVSLNSGYHFCGGSLINSQWVVSAAHCYKSGIQVRLGEDNINVVEGNEQFISASKSIVHPSYNSNTLNNDIMLIKLKSAASLNSRVASISLPTSCASAGTQCLISGWGNTKSSGTSYPDVLKCLKAPILSDSSCKSAYPGQITSNMFCAGYLEGGKDSCQGDSGGPVVCSGKLQGIVSWGSGCAQKNKPGVYTKVCNYVSWIKQTIASN
B2: Proteinase K: protease, applied alone as control after thermal inactivation (protein, UniProt P06873 106-384, looked up)
Proteinase K: AAQTNAPWGLARISSTSPGTSTYYYDESAGQGSCVYVIDTGIEASHPEFEGRAQMVKTYYYSSRDGNGHGTHCAGTVGSRTYGVAKKTQLFGVKVLDDNGSGQYSTIIAGMDFVASDKNNRNCPKGVVASLSLGGGYSSSVNSAAARLQSSGVMVAVAAGNNNADARNYSPASEPSVCTVGASDRYDRRSSFSNYGSVLDIFGPGTSILSTWIGGSTRSISGTSMATPHVAGLAAYLMTLGKTTAASACRYIADTANKGDLSNIPFGTVNLLAYNNYQA
modifications: heat-inactivated

Test system: C. albicans
Assay: Broth microdilution, impact of protease inactivation conditions (growth %)
Format: cell-based, Candida albicans

Molecule | Growth [%] (0.125 µM protease alone + 1.25 % FCS) | Growth [%] (0.125 µM protease alone + 100 °C, 15 min)
B1 | 136.7 ± 14 | 
B2 |  | 86 ± 4.5

Reference: publication PMC8226839, “New Perspectives in the Antimicrobial Activity of the Amphibian Temporin B: Peptide Analogs Are Effective Inhibitors of Candida albicans Growth” (Journal of Fungi, 2021)
